From the supplement of paper PMC11246515 come the findings set out here.

± gives the standard deviation of the averaged measurements.

A short description of the data set: total protein half-life in vivo (active degradation + dilution); higher = more stable protein.
[1] abbreviates: E. coli NCM3722 delta-clpP delta-lon delta-hslV, growth: N-lim chemostat, doubling time 6 h.
Setting [2] is: E. coli NCM3722 delta-clpP, growth: N-lim chemostat, doubling time 6 h.
The mark [3] stands for this setting: E. coli NCM3722 delta-hslV, growth: N-lim chemostat, doubling time 6 h.
Where [4] appears, read: E. coli NCM3722 delta-lon, growth: N-lim chemostat, doubling time 6 h.
The mark [5] stands for this setting: E. coli NCM3722 delta-smpB, growth: N-lim chemostat, doubling time 6 h.
The mark [6] stands for this setting: wild type E. coli NCM3722, growth: C-lim chemostat, doubling time 3 h.
Setting [7] is: wild type E. coli NCM3722, growth: C-lim chemostat, doubling time 6 h.
[8] abbreviates: wild type E. coli NCM3722, growth: C-lim chemostat, doubling time 12 h.
Where [9] appears, read: wild type E. coli NCM3722, growth: N-lim chemostat, doubling time 6 h.
The mark [10] stands for this setting: wild type E. coli NCM3722, growth: N-lim chemostat, doubling time 12 h.
The mark [11] stands for this setting: wild type E. coli NCM3722, growth: P-lim chemostat, doubling time 6 h.
[12] abbreviates: wild type E. coli NCM3722, growth: P-lim chemostat, doubling time 12 h.

“MRKIKIGLALGSGAARGWSHIGVINALKKVGIEIDIVAGCSIGSLVGAAYACDRLSALEDWVTSFSYWDVLRLMDLSWQRGGLLRGERVFNQYREIMPETEIENCSRRFAAVATNLSTGRELWFTEGDLHLAIRASCSIPGLMAPVAHNGYWLVDGAVVNPIPISLTRALGADIVIAVDLQHDAHLMQQDLLSFNVSEENSENGDSLPWHARLKERLGSITTRRAVTAPTATEIMTTSIQVLENRLKRNRMAGDPPDILIQPVCPQISTLDFHRAHAAIAAGQLAVERKMDELLPLVRTNI [P0AFR0]”: the “total protein half-life in vivo” value under setting [1] came to 5 ± 0.29 h; the “total protein half-life in vivo” value under setting [2] amounted to 4.67 ± 0.2 h; the “total protein half-life in vivo” value under setting [3] was 4.923 ± 0.045 h; the “total protein half-life in vivo” value under setting [4] was 5.26 h; the “total protein half-life in vivo” value under setting [5] amounted to 4.51 ± 0.14 h; the “total protein half-life in vivo” value under setting [6] was determined as 2.951 ± 0.017 h. For the same sequence, the “total protein half-life in vivo” value is, setting by setting: under setting [7], 5.25 ± 0.36 h; under setting [8], 10.6 ± 1.2 h; under setting [9], 5.61 ± 0.09 h; under setting [10], 8.89 ± 1.5 h; under setting [11], 5.659 ± 0.02 h; under setting [12], 11.7 ± 0.5 h.
In the case of “MEPKTKKQRSLYIPYAGPVLLEFPLLNKGSAFSMEERRNFNLLGLLPEVVETIEEQAERAWIQYQGFKTEIDKHIYLRNIQDTNETLFYRLVNNHLDEMMPVIYTPTVGAACERFSEIYRRSRGVFISYQNRHNMDDILQNVPNHNIKVIVVTDGERILGLGDQGIGGMGIPIGKLSLYTACGGISPAYTLPVVLDVGTNNQQLLNDPLYMGWRNPRITDDEYYEFVDEFIQAVKQRWPDVLLQFEDFAQKNAMPLLNRYRNEICSFNDDIQGTAAVTVGTLIAASRAAGGQLSEKKIVFLGAGSAGCGIAEMIISQTQREGLSEEAARQKVFMVDRFGLLTDKMPNLLPFQTKLVQKRENLSDWDTDSDVLSLLDVVRNVKPDILIGVSGQTGLFTEEIIREMHKHCPRPIVMPLSNPTSRVEATPQDIIAWTEGNALVATGSPFNPVVWKDKIYPIAQCNNAFIFPGIGLGVIASGASRITDEMLMSASETLAQYSPLVLNGEGMVLPELKDIQKVSRAIAFAVGKMAQQQGVAVKTSAEALQQAIDDNFWQAEYRDYRRTSI”, the “total protein half-life in vivo” value is, setting by setting: under setting [1], 6.33 ± 0.63 h; under setting [2], 6.5 ± 0.58 h; under setting [3], 5.686 ± 0.037 h; under setting [4], 6.01 ± 0.3 h; under setting [5], 6.06 ± 0.73 h; under setting [6], 3.1 ± 0.2 h. Further, the “total protein half-life in vivo” value is, setting by setting: under setting [7], 5.94 ± 0.31 h; under setting [8], 10.8 ± 0.22 h; under setting [9], 5.23 ± 0.31 h; under setting [10], 10.8 ± 0.32 h; under setting [11], 6.05 ± 0.42 h; under setting [12], 12.1 ± 0.8 h.
Turning to “MHSERAPFFLKLAAWGGVVFLHFPILIIAAYAFNTEDAAFSFPPQGLTLRWFSVAAQRSDILDAVTLSLKVAALATLIALVLGTLAAAALWRRDFFGKNAISLLLLLPIALPGIVTGLALLTAFKTINLEPGFFTIVVGHATFCVVVVFNNVIARFRRTSWSLVEASMDLGANGWQTFRYVVLPNLSSALLAGGMLAFALSFDEIIVTTFTAGHERTLPLWLLNQLGRPRDVPVTNVVALLVMLVTTLPILGAWWLTREGDNGQ [P0AFR9]”, the “total protein half-life in vivo” value under setting [1] turned out to be 6.7 h.
As for “MAESFTTTNRYFDNKHYPRGFSRHGDFTIKEAQLLERHGYAFNELDLGKREPVTEEEKLFVAVCRGEREPVTEAERVWSKYMTRIKRPKRFHTLSGGKPQVEGAEDYTDSDD [P0ADN2]”, the “total protein half-life in vivo” value is, setting by setting: under setting [4], 5.14 ± 0.96 h; under setting [5], 3.28 ± 0.088 h; under setting [6], 2.19 ± 0.043 h; under setting [7], 4.55 ± 0.35 h; under setting [8], 5.73 h; under setting [9], 3.09 ± 0.15 h. Further, the “total protein half-life in vivo” value stood at 5.68 ± 0.092 h under setting [10], 3.14 ± 0.43 h under setting [11] and 5.53 ± 0.6 h under setting [12].
For “MTSSYLHFPEFDPVIFSIGPVALHWYGLMYLVGFIFAMWLATRRANRPGSGWTKNEVENLLYAGFLGVFLGGRIGYVLFYNFPQFMADPLYLFRVWDGGMSFHGGLIGVIVVMIIFARRTKRSFFQVSDFIAPLIPFGLGAGRLGNFINGELWGRVDPNFPFAMLFPGSRTEDILLLQTNPQWQSIFDTYGVLPRHPSQLYELLLEGVVLFIILNLYIRKPRPMGAVSGLFLIGYGAFRIIVEFFRQPDAQFTGAWVQYISMGQILSIPMIVAGVIMMVWAYRRSPQQHVS”, the “total protein half-life in vivo” value was above 8 h under setting [1]; 7.73 h under setting [4]; 6.89 ± 0.72 h under setting [9]; 6.28 ± 0.24 h under setting [11]; 11.5 ± 0.95 h under setting [12].
For “MKKGTVLNSDISSVISRLGHTDTLVVCDAGLPIPKSTTRIDMALTQGVPSFMQVLGVVTNEMQVEAAIIAEEIKHHNPQLHETLLTHLEQLQKHQGNTIEIRYTTHEQFKQQTAESQAVIRSGECSPYANIILCAGVTF”, the “total protein half-life in vivo” value came to 5.99 ± 0.1 h under setting [1]; 5.79 ± 2.1 h under setting [2]; 4.85 h under setting [3]; 4.78 ± 0.7 h under setting [5]; 3.49 ± 0.2 h under setting [6]; 6.69 ± 1.8 h under setting [7]. Besides, the “total protein half-life in vivo” value runs as follows: under setting [8], 10.6 ± 0.4 h; under setting [9], 4.95 ± 0.51 h; under setting [10], 6.08 h; under setting [11], 6.43 ± 0.15 h; under setting [12], 13.3 ± 2.3 h.
Take “MAQLKFNSILVVCTGNICRSPIGERLLRKRLPGVKVKSAGVHGLVKHPADATAADVAANHGVSLEGHAGRKLTAEMARNYDLILAMESEHIAQVTAIAPEVRGKTMLFGQWLEQKEIPDPYRKSQDAFEHVYGMLERASQEWAKRLSR [P0ACZ2]”: the “total protein half-life in vivo” value is, setting by setting: under setting [1], 4.76 ± 0.95 h; under setting [11], 2.72 h.
Consider “MARSKTAQPKHSLRKIAVVVATAVSGMSVYAQAAVEPKEDTITVTAAPAPQESAWGPAATIAARQSATGTKTDTPIQKVPQSISVVTAEEMALHQPKSVKEALSYTPGVSVGTRGASNTYDHLIIRGFAAEGQSQNNYLNGLKLQGNFYNDAVIDPYMLERAEIMRGPVSVLYGKSSPGGLLNMVSKRPTTEPLKEVQFKAGTDSLFQTGFDFSDSLDDDGVYSYRLTGLARSANAQQKGSEEQRYAIAPAFTWRPDDKTNFTFLSYFQNEPETGYYGWLPKEGTVEPLPNGKRLPTDFNEGAKNNTYSRNEKMVGYSFDHEFNDTFTVRQNLRFAENKTSQNSVYGYGVCSDPANAYSKQCAALAPADKGHYLARKYVVDDEKLQNFSVDTQLQSKFATGDIDHTLLTGVDFMRMRNDINAWFGYDDSVPLLNLYNPVNTDFDFNAKDPANSGPYRILNKQKQTGVYVQDQAQWDKVLVTLGGRYDWADQESLNRVAGTTDKRDDKQFTWRGGVNYLFDNGVTPYFSYSESFEPSSQVGKDGNIFAPSKGKQYEVGVKYVPEDRPIVVTGAVYNLTKTNNLMADPEGSFFSVEGGEIRARGVEIEAKAALSASVNVVGSYTYTDAEYTTDTTYKGNTPAQVPKHMASLWADYTFFDGPLSGLTLGTGGRYTGSSYGDPANSFKVGSYTVVDALVRYDLARVGMAGSNVALHVNNLFDREYVASCFNTYGCFWGAERQVVATATFRF”, for which the “total protein half-life in vivo” value by setting is: under setting [1], 6.92 ± 0.69 h; under setting [2], 6.41 ± 0.62 h; under setting [3], 6.62 ± 0.65 h; under setting [4], 6.11 ± 0.76 h; under setting [6], 3.36 ± 0.23 h; under setting [7], 6.64 ± 0.37 h. Also, the “total protein half-life in vivo” value amounted to 14.3 ± 1.2 h under setting [8], 6.14 ± 0.072 h under setting [9], 11.6 ± 6.1 h under setting [10] and 13 ± 0.45 h under setting [12].
In the case of “MTHQLRSRDIIALGFMTFALFVGAGNIIFPPMVGLQAGEHVWTAAFGFLITAVGLPVLTVVALAKVGGGVDSLSTPIGKVAGVLLATVCYLAVGPLFATPRTATVSFEVGIAPLTGDSALPLFIYSLVYFAIVILVSLYPGKLLDTVGNFLAPLKIIALVILSVAAIVWPAGSISTATEAYQNAAFSNGFVNGYLTMDTLGAMVFGIVIVNAARSRGVTEARLLTRYTVWAGLMAGVGLTLLYLALFRLGSDSASLVDQSANGAAILHAYVQHTFGGGGSFLLAALIFIACLVTAVGLTCACAEFFAQYVPLSYRTLVFILGGFSMVVSNLGLSQLIQISVPVLTAIYPPCIALVVLSFTRSWWHNSSRVIAPPMFISLLFGILDGIKASAFSDILPSWAQRLPLAEQGLAWLMPTVVMVVLAIIWDRAAGRQVTSSAH [P0AD99]”, the “total protein half-life in vivo” value reads like this: under setting [11], 0.949 h; under setting [12], 1.98 ± 0.53 h.
Consider “MLKPDNLPVTFGKNDVEIIARETLYRGFFSLDLYRFRHRLFNGQMSHEVRREIFERGHAAVLLPFDPVRDEVVLIEQIRIAAYDTSETPWLLEMVAGMIEEGESVEDVARREAIEEAGLIVKRTKPVLSFLASPGGTSERSSIMVGEVDATTASGIHGLADENEDIRVHVVSREQAYQWVEEGKIDNAASVIALQWLQLHHQALKNEWA [Q93K97]”, for which the “total protein half-life in vivo” value runs as follows: under setting [2], 4.47 ± 0.8 h; under setting [3], 4.6 ± 0.65 h; under setting [4], 4.759 ± 0.044 h; under setting [5], 4.63 ± 0.46 h; under setting [6], 3.05 ± 0.36 h; under setting [7], 5.79 ± 0.16 h. Besides, the “total protein half-life in vivo” value under setting [8] stood at 11 ± 0.82 h; the “total protein half-life in vivo” value under setting [9] stood at 4.23 ± 0.34 h; the “total protein half-life in vivo” value under setting [10] came to 7.1411 ± 0.0014 h; the “total protein half-life in vivo” value under setting [11] stood at 5.98 ± 0.42 h; the “total protein half-life in vivo” value under setting [12] stood at 12.9 ± 0.41 h.
